{"source": "paper PMC10353453", "about": "(Molecular cell, 2022)", "key": {"mass photometry": {"biological_target": "the molecule itself", "assay": "mass photometry"}, "SAXS": {"biological_target": "the molecule itself", "assay": "SAXS"}, "cross-linking": {"biological_target": "the molecule itself", "assay": "cross-linking"}}}
{"protein": "His-NADK2^Δ78–114 (aa 61–442) (enzyme, human, UniProt Q4G0N4 61-442, looked up) RADGGFRPSRVVVVAKTHHIHTKNVEHIIDSLRNEGIEVRLVKRREYDEETVRWADAVIAAGGDGTMLLAASKVLDRLKPVIGVNTDPERSEGHLCLPVRYTHSFPEALQKFYRGEFRWLWRQRIRLYLEGTGINPVPVDLHEQQLSLNQHNRALNIERAHDERSEASGPQLLPVRALNEVFIGESLSSRASYYEISVDDGPWEKQKSSGLNLCTGTGSKAWSFNINRVATQAVEDVLNIAKRQGNLSLPLNRELVEKVTNEYNESLLYSPEEPKILFSIREPIANRVFSSSRQRCFSSKVCVRSRCWDACMVVDGGTSFEFNDGAIASMMINKEDELRTVLLEQ", "values": [{"measurement": "stoichiometry N", "setting": "mass photometry", "value": 2}]}
{"protein": "His-NADK2^Δ231–266 (aa 61–442) (enzyme, human, UniProt Q4G0N4 61-442, looked up) RADGGFRPSRVVVVAKTTRYEFEQQRYRYAELSEEDLKQLLALKGSSYSGLLERHHIHTKNVEHIIDSLRNEGIEVRLVKRREYDEETVRWADAVIAAGGDGTMLLAASKVLDRLKPVIGVNTDPERSEGHLCLPVRYTHSFPEALQKFYRGEFRWLWRQRIRLYLEGTGPQLLPVRALNEVFIGESLSSRASYYEISVDDGPWEKQKSSGLNLCTGTGSKAWSFNINRVATQAVEDVLNIAKRQGNLSLPLNRELVEKVTNEYNESLLYSPEEPKILFSIREPIANRVFSSSRQRCFSSKVCVRSRCWDACMVVDGGTSFEFNDGAIASMMINKEDELRTVLLEQ", "values": [{"measurement": "stoichiometry N", "setting": "mass photometry", "value": 2}]}
{"protein": "His-NADK2^V334R (enzyme, human, UniProt Q4G0N4 61-442, looked up) RADGGFRPSRVVVVAKTTRYEFEQQRYRYAELSEEDLKQLLALKGSSYSGLLERHHIHTKNVEHIIDSLRNEGIEVRLVKRREYDEETVRWADAVIAAGGDGTMLLAASKVLDRLKPVIGVNTDPERSEGHLCLPVRYTHSFPEALQKFYRGEFRWLWRQRIRLYLEGTGINPVPVDLHEQQLSLNQHNRALNIERAHDERSEASGPQLLPVRALNEVFIGESLSSRASYYEISVDDGPWEKQKSSGLNLCTGTGSKAWSFNINRVATQAVEDRLNIAKRQGNLSLPLNRELVEKVTNEYNESLLYSPEEPKILFSIREPIANRVFSSSRQRCFSSKVCVRSRCWDACMVVDGGTSFEFNDGAIASMMINKEDELRTVLLEQ", "values": [{"measurement": "stoichiometry N", "setting": "mass photometry", "value": 2}]}
{"protein": "His-NADK2^R378Q (enzyme, human, UniProt Q4G0N4 61-442, looked up) RADGGFRPSRVVVVAKTTRYEFEQQRYRYAELSEEDLKQLLALKGSSYSGLLERHHIHTKNVEHIIDSLRNEGIEVRLVKRREYDEETVRWADAVIAAGGDGTMLLAASKVLDRLKPVIGVNTDPERSEGHLCLPVRYTHSFPEALQKFYRGEFRWLWRQRIRLYLEGTGINPVPVDLHEQQLSLNQHNRALNIERAHDERSEASGPQLLPVRALNEVFIGESLSSRASYYEISVDDGPWEKQKSSGLNLCTGTGSKAWSFNINRVATQAVEDVLNIAKRQGNLSLPLNRELVEKVTNEYNESLLYSPEEPKILFSIQEPIANRVFSSSRQRCFSSKVCVRSRCWDACMVVDGGTSFEFNDGAIASMMINKEDELRTVLLEQ", "values": [{"measurement": "stoichiometry N", "setting": "mass photometry", "value": 2}]}
{"protein": "His-NADK2^S188A (enzyme, human, UniProt Q4G0N4 61-442, looked up) RADGGFRPSRVVVVAKTTRYEFEQQRYRYAELSEEDLKQLLALKGSSYSGLLERHHIHTKNVEHIIDSLRNEGIEVRLVKRREYDEETVRWADAVIAAGGDGTMLLAASKVLDRLKPVIGVNTDPERAEGHLCLPVRYTHSFPEALQKFYRGEFRWLWRQRIRLYLEGTGINPVPVDLHEQQLSLNQHNRALNIERAHDERSEASGPQLLPVRALNEVFIGESLSSRASYYEISVDDGPWEKQKSSGLNLCTGTGSKAWSFNINRVATQAVEDVLNIAKRQGNLSLPLNRELVEKVTNEYNESLLYSPEEPKILFSIREPIANRVFSSSRQRCFSSKVCVRSRCWDACMVVDGGTSFEFNDGAIASMMINKEDELRTVLLEQ", "values": [{"measurement": "stoichiometry N", "setting": "mass photometry", "value": 2}]}
{"protein": "His-NADK2^K76Q (enzyme, human, UniProt Q4G0N4 61-442, looked up) RADGGFRPSRVVVVAQTTRYEFEQQRYRYAELSEEDLKQLLALKGSSYSGLLERHHIHTKNVEHIIDSLRNEGIEVRLVKRREYDEETVRWADAVIAAGGDGTMLLAASKVLDRLKPVIGVNTDPERSEGHLCLPVRYTHSFPEALQKFYRGEFRWLWRQRIRLYLEGTGINPVPVDLHEQQLSLNQHNRALNIERAHDERSEASGPQLLPVRALNEVFIGESLSSRASYYEISVDDGPWEKQKSSGLNLCTGTGSKAWSFNINRVATQAVEDVLNIAKRQGNLSLPLNRELVEKVTNEYNESLLYSPEEPKILFSIREPIANRVFSSSRQRCFSSKVCVRSRCWDACMVVDGGTSFEFNDGAIASMMINKEDELRTVLLEQ", "values": [{"measurement": "stoichiometry N", "setting": "mass photometry", "value": 2}]}
{"protein": "His-NADK2^K304Q (enzyme, human, UniProt Q4G0N4 61-442, looked up) RADGGFRPSRVVVVAKTTRYEFEQQRYRYAELSEEDLKQLLALKGSSYSGLLERHHIHTKNVEHIIDSLRNEGIEVRLVKRREYDEETVRWADAVIAAGGDGTMLLAASKVLDRLKPVIGVNTDPERSEGHLCLPVRYTHSFPEALQKFYRGEFRWLWRQRIRLYLEGTGINPVPVDLHEQQLSLNQHNRALNIERAHDERSEASGPQLLPVRALNEVFIGESLSSRASYYEISVDDGPWEKQQSSGLNLCTGTGSKAWSFNINRVATQAVEDVLNIAKRQGNLSLPLNRELVEKVTNEYNESLLYSPEEPKILFSIREPIANRVFSSSRQRCFSSKVCVRSRCWDACMVVDGGTSFEFNDGAIASMMINKEDELRTVLLEQ", "values": [{"measurement": "stoichiometry N", "setting": "mass photometry", "value": 2}]}
{"protein": "human NADK2 (aa 61–442 with an N terminus His-tag) (enzyme, UniProt Q4G0N4 61-442, looked up) RADGGFRPSRVVVVAKTTRYEFEQQRYRYAELSEEDLKQLLALKGSSYSGLLERHHIHTKNVEHIIDSLRNEGIEVRLVKRREYDEETVRWADAVIAAGGDGTMLLAASKVLDRLKPVIGVNTDPERSEGHLCLPVRYTHSFPEALQKFYRGEFRWLWRQRIRLYLEGTGINPVPVDLHEQQLSLNQHNRALNIERAHDERSEASGPQLLPVRALNEVFIGESLSSRASYYEISVDDGPWEKQKSSGLNLCTGTGSKAWSFNINRVATQAVEDVLNIAKRQGNLSLPLNRELVEKVTNEYNESLLYSPEEPKILFSIREPIANRVFSSSRQRCFSSKVCVRSRCWDACMVVDGGTSFEFNDGAIASMMINKEDELRTVLLEQ", "values": [{"measurement": "stoichiometry N", "setting": "SAXS", "value": 2}]}
{"protein": "NADK2 expressed in HEK293E cells (full-length human NADK2 cDNA with a C-terminal FLAG-tag) (enzyme, UniProt Q4G0N4 63-442, looked up) DGGFRPSRVVVVAKTTRYEFEQQRYRYAELSEEDLKQLLALKGSSYSGLLERHHIHTKNVEHIIDSLRNEGIEVRLVKRREYDEETVRWADAVIAAGGDGTMLLAASKVLDRLKPVIGVNTDPERSEGHLCLPVRYTHSFPEALQKFYRGEFRWLWRQRIRLYLEGTGINPVPVDLHEQQLSLNQHNRALNIERAHDERSEASGPQLLPVRALNEVFIGESLSSRASYYEISVDDGPWEKQKSSGLNLCTGTGSKAWSFNINRVATQAVEDVLNIAKRQGNLSLPLNRELVEKVTNEYNESLLYSPEEPKILFSIREPIANRVFSSSRQRCFSSKVCVRSRCWDACMVVDGGTSFEFNDGAIASMMINKEDELRTVLLEQ", "values": [{"measurement": "stoichiometry N", "setting": "cross-linking", "value": 2}]}
